Reference: patent US20170051261
Positions count from the first letter of the chain named. Numbers in names are those of the source.

Biological target: human acyl ghrelin, Q9UBU3
Sequence (Q9UBU3 whole entry, looked up): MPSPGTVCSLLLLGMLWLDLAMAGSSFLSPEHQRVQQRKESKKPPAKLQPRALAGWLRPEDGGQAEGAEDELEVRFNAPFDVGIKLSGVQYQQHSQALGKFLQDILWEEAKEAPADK

B1: purified human butyrylcholinesterase (wild-type human BChE) (protein)
chain: EDDIIIATKNGKVRGMNLTVFGGTVTAFLGIPYAQPPLGRLRFKKPQSLTKWSDIWNATKYANSCCQNIDQSFPGFHGSEMWNPNTDLSEDCLYLNVWIPAPKPKNATVLIWIYGGGFQTGTSSLHVYDGKFLARVERVIVVSMNYRVGALGFLALPGNPEAPGNMGLFDQQLALQWVQKNIAAFGGNPKSVTLFGESAGAASVSLHLLSPGSHSLFTRAILQSGSFNAPWAVTSLYEARNRTLNLAKLTGCSRENETEIIKCLRNKDPQEILLNEAFVVPYGTPLSVNFGPTVDGDFLTDMPDILLELGQFKKTQILVGVNKDEGTAFLVYGAPGFSKDNNSIITRKEFQEGLKIFFPGVSEFGKESILFHYTDWVDDQRPENYREALGDVVGDYNFICPALEFTKKFSEWGNNAFFYYFEHRSSKLPWPEWMGVMHGYEIEFVFGLPLERRDNYTKAEEILSRSIVKRWANFAKYGNPNETQNNSTSWPVFKSTEQKYLTLNTESTRIMTKLRAQQCRFWTSFFPKVLEMTGNIDEAEWEWKAGFHRWNNYMMDWKNQFNDYTSKKESCVGL
In the case of B1, the “hydrolysis (deacylation) of acyl ghrelin in vitro; residual acyl ghrelin and desacyl ghrelin by immunoassay” value is reported as “Incubation of a sample containing acyl ghrelin with increasing amounts of human BChE resulted in a decrease in the amount of acyl ghrelin and an increase in the amount of the breakdown product, desacyl ghrelin” and the “time course of acyl ghrelin hydrolysis in vitro” value is reported as “A linear hydrolysis rate was observed”.

B2: A199S/F227A/S287G/A328W/Y332G mutant human BChE (protein)
chain: B1 chain with A199S, F227A, S287G, A328W, Y332G
B2 was tested, and the “ghrelin hydrolyzing activity in vitro (human ghrelin immunoassay kit: decrease in acyl ghrelin, increase in deacyl ghrelin)” value was “exhibited modest activity, comparable to that of wild type human BChE”.

B3: A199S/S227A/S287G/A328W/Y332G mutant mouse BChE (protein)
chain: EEDFIITTKTGRVRGLSMPVLGGTVTAFLGIPYAQPPLGSLRFKKPQPLNKWPDIHNATQYANSCYQNIDQAFPGFQGSEMWNPNTNLSEDCLYLNVWIPVPKPKNATVMVWIYGGGFQTGTSSLPVYDGKFLARVERVIVVSMNYRVGALGFLAFPGNPDAPGNMGLFDQQLALQWVQRNIAAFGGNPKSITIFGESSGAASVSLHLLCPQSYPLFTRAILESGSANAPWAVKHPEEARNRTLTLAKFTGCSKENEMEMIKCLRSKDPQEILRNERFVLPSDSILGINFGPTVDGDFLTDMPHTLLQLGKVKKAQILVGVNKDEGTWFLVGGAPGFSKDNDSLITRKEFQEGLNMYFPGVSRLGKEAVLFYYVDWLGEQSPEVYRDALDDVIGDYNIICPALEFTKKFAELENNAFFYFFEHRSSKLPWPEWMGVMHGYEIEFVFGLPLGRRVNYTRAEEIFSRSIMKTWANFAKYGHPNGTQGNSTMWPVFTSTEQKYLTLNTEKSKIYSKLRAPQCQFWRLFFPKVLEMTGDIDETEQEWKAGFHRWSNYMMDWQNQFNDYTSKKESCTAL
In the case of B3, the “ghrelin hydrolyzing activity in vitro (human ghrelin immunoassay kit: decrease in acyl ghrelin, increase in deacyl ghrelin)” value is reported as “exhibited enhanced activity (e.g., at least 20-fold more activity), comparable to that of wild type mouse BChE”.
